B1: Fc-fused protein of human TIGIT [human] / wild type human PVR, full length, on CHO-K1 cells [human] (parent complex)
chain 1: MMTGTIETTGNISAEKGGSIILQCHLSSTTAQVTQVNWEQQDQLLAICNADLGWHISPSFKDRVAPGPGLGLTLQSLTVNDTGEYFCIYHTYPDGTYTGRIFLEVLESSVAEHGARFQIP
chain 2: WPPPGTGDVVVQAPTQVPGFLGDSVTLPCYLQVPNMEVTHVSQLTWARHGESGSMAVFHQTQGPSYSESKRLEFVAARLGAELRNASLRMFGLRVEDEGNYTCLFVTFPQGSRSVDIWLRVLAKPQNTAEVQKVQLTGEPVPMARCVSTGGRPPAQITWHSDLGGMPNTSQVPGFLSGTVTVTSLWILVPSSQVDGKNVTCKVEHESFEKPQLLTVNLTVYYPPEVSISGYDNNWYLGQNEATLTCDARSNPEPTGYNWSTTMGPLPPFAVAQGAQLLIRPVDKPINTTLICNVTNALGARQAELTVQVKEGPPSEHSGISRNAIIFLVLGILVFLILLGIGIYFYWSKCSREVLWHCHLCPSSTEHASASANGHVSYSAVSRENSSSQDPQTEGTR

Variants of B1 are the subject of the first test. The experiment in a line: flow cytometry on cells; 120 nM hTIGIT-Fc; CHOK1 cells overexpressing hPVR; parent: 1; read off a plot. For orientation: Flow cytometry measures light scatter and fluorescence of single cells or particles in a stream.
With chain 2 WPPPGTGDVVVQAPTQVPGFLGDSVTLPCYLQVPNMEVTHVSQLEWARHGESGSMAVFHQTQGPSYSESKRLEFVAARLGAELRNASLRMFGLRVEDEGNYTCLFVTFPQGSRSVDIWLRVLAKPQNTAEVQKVQLTGEPVPMARCVSTGGRPPAQITWHSDLGGMPNTSQVPGFLSGTVTVTSLWILVPSSQVDGKNVTCKVEHESFEKPQLLTVNLTVYYPPEVSISGYDNNWYLGQNEATLTCDARSNPEPTGYNWSTTMGPLPPFAVAQGAQLLIRPVDKPINTTLICNVTNALGARQAELTVQVKEGPPSEHSGISRNAIIFLVLGILVFLILLGIGIYFYWSKCSREVLWHCHLCPSSTEHASASANGHVSYSAVSRENSSSQDPQTEGTR [chain 2 T45E], the ratio to parent was roughly 0.1.
In the case of chain 2 WPPPGTGDVVVQAPTQVPGFLGDSVTLPCYLQVPNMEVTHVSQLTWARHGEWGSMAVFHQTQGPSYSESKRLEFVAARLGAELRNASLRMFGLRVEDEGNYTCLFVTFPQGSRSVDIWLRVLAKPQNTAEVQKVQLTGEPVPMARCVSTGGRPPAQITWHSDLGGMPNTSQVPGFLSGTVTVTSLWILVPSSQVDGKNVTCKVEHESFEKPQLLTVNLTVYYPPEVSISGYDNNWYLGQNEATLTCDARSNPEPTGYNWSTTMGPLPPFAVAQGAQLLIRPVDKPINTTLICNVTNALGARQAELTVQVKEGPPSEHSGISRNAIIFLVLGILVFLILLGIGIYFYWSKCSREVLWHCHLCPSSTEHASASANGHVSYSAVSRENSSSQDPQTEGTR [chain 2 S52W], the ratio to parent was roughly 1.2.
Still for that read-out and setting: as for chain 2 WPPPGTGDVVVQAPTQVPGFLGDSVTLPCYLQVPNMEVTHVSQLTWARHGERGSMAVFHQTQGPSYSESKRLEFVAARLGAELRNASLRMFGLRVEDEGNYTCLFVTFPQGSRSVDIWLRVLAKPQNTAEVQKVQLTGEPVPMARCVSTGGRPPAQITWHSDLGGMPNTSQVPGFLSGTVTVTSLWILVPSSQVDGKNVTCKVEHESFEKPQLLTVNLTVYYPPEVSISGYDNNWYLGQNEATLTCDARSNPEPTGYNWSTTMGPLPPFAVAQGAQLLIRPVDKPINTTLICNVTNALGARQAELTVQVKEGPPSEHSGISRNAIIFLVLGILVFLILLGIGIYFYWSKCSREVLWHCHLCPSSTEHASASANGHVSYSAVSRENSSSQDPQTEGTR [chain 2 S52R], the figure is roughly 1.1.
On the same count and under the same terms, then chain 2 WPPPGTGDVVVQAPTQVPGFLGDSVTLPCYLQVPNMEVTHVSQLTWARHGESGWMAVFHQTQGPSYSESKRLEFVAARLGAELRNASLRMFGLRVEDEGNYTCLFVTFPQGSRSVDIWLRVLAKPQNTAEVQKVQLTGEPVPMARCVSTGGRPPAQITWHSDLGGMPNTSQVPGFLSGTVTVTSLWILVPSSQVDGKNVTCKVEHESFEKPQLLTVNLTVYYPPEVSISGYDNNWYLGQNEATLTCDARSNPEPTGYNWSTTMGPLPPFAVAQGAQLLIRPVDKPINTTLICNVTNALGARQAELTVQVKEGPPSEHSGISRNAIIFLVLGILVFLILLGIGIYFYWSKCSREVLWHCHLCPSSTEHASASANGHVSYSAVSRENSSSQDPQTEGTR [chain 2 S54W], with roughly 1.2.
For the variant chain 2 WPPPGTGDVVVQAPTQVPGFLGDSVTLPCYLQVPNMEVTHVSQLTWARHGESGSMAVFHQTQGPSYWESKRLEFVAARLGAELRNASLRMFGLRVEDEGNYTCLFVTFPQGSRSVDIWLRVLAKPQNTAEVQKVQLTGEPVPMARCVSTGGRPPAQITWHSDLGGMPNTSQVPGFLSGTVTVTSLWILVPSSQVDGKNVTCKVEHESFEKPQLLTVNLTVYYPPEVSISGYDNNWYLGQNEATLTCDARSNPEPTGYNWSTTMGPLPPFAVAQGAQLLIRPVDKPINTTLICNVTNALGARQAELTVQVKEGPPSEHSGISRNAIIFLVLGILVFLILLGIGIYFYWSKCSREVLWHCHLCPSSTEHASASANGHVSYSAVSRENSSSQDPQTEGTR [chain 2 S67W], the ratio to parent is roughly 0.82.
Same read-out and setting: as for chain 2 WPPPGTGDVVVQAPTQVPGFLGDSVTLPCYLQVPNMEVTHVSQLTWARHGESGSMAVFHQTQGPSYSESKRLEFVAARLGAELRNASLRMFGLRVEDEGNYTCLFVTFPQWSRSVDIWLRVLAKPQNTAEVQKVQLTGEPVPMARCVSTGGRPPAQITWHSDLGGMPNTSQVPGFLSGTVTVTSLWILVPSSQVDGKNVTCKVEHESFEKPQLLTVNLTVYYPPEVSISGYDNNWYLGQNEATLTCDARSNPEPTGYNWSTTMGPLPPFAVAQGAQLLIRPVDKPINTTLICNVTNALGARQAELTVQVKEGPPSEHSGISRNAIIFLVLGILVFLILLGIGIYFYWSKCSREVLWHCHLCPSSTEHASASANGHVSYSAVSRENSSSQDPQTEGTR [chain 2 G111W], the figure is roughly 0.55; as for chain 2 WPPPGTGDVVVQAPTQVPGFLGDSVTLPCYLQVPNMEVTHVSQLTWARHGESGSMAVFHQTQGPSYSESKRLEFVAARLGAELRNASLRMFGLRVEDEGNYTCLFVTFPQVSRSVDIWLRVLAKPQNTAEVQKVQLTGEPVPMARCVSTGGRPPAQITWHSDLGGMPNTSQVPGFLSGTVTVTSLWILVPSSQVDGKNVTCKVEHESFEKPQLLTVNLTVYYPPEVSISGYDNNWYLGQNEATLTCDARSNPEPTGYNWSTTMGPLPPFAVAQGAQLLIRPVDKPINTTLICNVTNALGARQAELTVQVKEGPPSEHSGISRNAIIFLVLGILVFLILLGIGIYFYWSKCSREVLWHCHLCPSSTEHASASANGHVSYSAVSRENSSSQDPQTEGTR [chain 2 G111V], roughly 1.6; as for chain 2 WPPPGTGDVVVQAPTQVPGFLGDSVTLPCYLQVPNMEVTHVSQLTWARHGESGSMAVFHQTQGPSYSESKRLEFVAARLGAELRNASLRMFGLRVEDEGNYTCLFVTFPQMSRSVDIWLRVLAKPQNTAEVQKVQLTGEPVPMARCVSTGGRPPAQITWHSDLGGMPNTSQVPGFLSGTVTVTSLWILVPSSQVDGKNVTCKVEHESFEKPQLLTVNLTVYYPPEVSISGYDNNWYLGQNEATLTCDARSNPEPTGYNWSTTMGPLPPFAVAQGAQLLIRPVDKPINTTLICNVTNALGARQAELTVQVKEGPPSEHSGISRNAIIFLVLGILVFLILLGIGIYFYWSKCSREVLWHCHLCPSSTEHASASANGHVSYSAVSRENSSSQDPQTEGTR [chain 2 G111M], roughly 0.93.
Still for that read-out and setting: as for chain 2 WPPPGTGDVVVQAPTQVPGFLGDSVTLPCYLQVPNMEVTHVSQLTWARHGESGSMAVFHQTQGPSYSESKRLEFVAARLGAELRNASLRMFGLRVEDEGNYTCLFVTFPQGQRSVDIWLRVLAKPQNTAEVQKVQLTGEPVPMARCVSTGGRPPAQITWHSDLGGMPNTSQVPGFLSGTVTVTSLWILVPSSQVDGKNVTCKVEHESFEKPQLLTVNLTVYYPPEVSISGYDNNWYLGQNEATLTCDARSNPEPTGYNWSTTMGPLPPFAVAQGAQLLIRPVDKPINTTLICNVTNALGARQAELTVQVKEGPPSEHSGISRNAIIFLVLGILVFLILLGIGIYFYWSKCSREVLWHCHLCPSSTEHASASANGHVSYSAVSRENSSSQDPQTEGTR [chain 2 S112Q], the figure is roughly 1.4.
As to chain 2 WPPPGTGDVVVQAPTQVPGFLGDSVTLPCYLQVPNMEVTHVSQLTWARHGESGSMAVFHQTQGPSYSESKRLEFVAARLGAELRNASLRMFGLRVEDEGNYTCLFVTFPQGRRSVDIWLRVLAKPQNTAEVQKVQLTGEPVPMARCVSTGGRPPAQITWHSDLGGMPNTSQVPGFLSGTVTVTSLWILVPSSQVDGKNVTCKVEHESFEKPQLLTVNLTVYYPPEVSISGYDNNWYLGQNEATLTCDARSNPEPTGYNWSTTMGPLPPFAVAQGAQLLIRPVDKPINTTLICNVTNALGARQAELTVQVKEGPPSEHSGISRNAIIFLVLGILVFLILLGIGIYFYWSKCSREVLWHCHLCPSSTEHASASANGHVSYSAVSRENSSSQDPQTEGTR [chain 2 S112R], the ratio to parent was roughly 1.

In the next test the parent is B1. The experiment in a line: flow cytometry on cells; 120 nM hTIGIT-Fc; CHOK1 cells overexpressing hPVR; parent: 3.2e+03; read off a plot.
For the variant chain 2 WPPPGTGDVVVQAPTQVPGFLGDSVTLPCYLQVPNMEVTHVSQLEWARHGESGSMAVFHQTQGPSYSESKRLEFVAARLGAELRNASLRMFGLRVEDEGNYTCLFVTFPQGSRSVDIWLRVLAKPQNTAEVQKVQLTGEPVPMARCVSTGGRPPAQITWHSDLGGMPNTSQVPGFLSGTVTVTSLWILVPSSQVDGKNVTCKVEHESFEKPQLLTVNLTVYYPPEVSISGYDNNWYLGQNEATLTCDARSNPEPTGYNWSTTMGPLPPFAVAQGAQLLIRPVDKPINTTLICNVTNALGARQAELTVQVKEGPPSEHSGISRNAIIFLVLGILVFLILLGIGIYFYWSKCSREVLWHCHLCPSSTEHASASANGHVSYSAVSRENSSSQDPQTEGTR [chain 2 T45E], the response was roughly 100 MFI.
Turning to chain 2 WPPPGTGDVVVQAPTQVPGFLGDSVTLPCYLQVPNMEVTHVSQLTWARHGESGSMAVFHQTQGPSYWESKRLEFVAARLGAELRNASLRMFGLRVEDEGNYTCLFVTFPQGSRSVDIWLRVLAKPQNTAEVQKVQLTGEPVPMARCVSTGGRPPAQITWHSDLGGMPNTSQVPGFLSGTVTVTSLWILVPSSQVDGKNVTCKVEHESFEKPQLLTVNLTVYYPPEVSISGYDNNWYLGQNEATLTCDARSNPEPTGYNWSTTMGPLPPFAVAQGAQLLIRPVDKPINTTLICNVTNALGARQAELTVQVKEGPPSEHSGISRNAIIFLVLGILVFLILLGIGIYFYWSKCSREVLWHCHLCPSSTEHASASANGHVSYSAVSRENSSSQDPQTEGTR [chain 2 S67W], the response was roughly 2600 MFI.
Consider chain 2 WPPPGTGDVVVQAPTQVPGFLGDSVTLPCYLQVPNMEVTHVSQLTWARHGESGSMAVFHQTQGPSYSESKRLEFVAARLGAELRNASLRMFGLRVEDEGNYTCLFVTFPQWSRSVDIWLRVLAKPQNTAEVQKVQLTGEPVPMARCVSTGGRPPAQITWHSDLGGMPNTSQVPGFLSGTVTVTSLWILVPSSQVDGKNVTCKVEHESFEKPQLLTVNLTVYYPPEVSISGYDNNWYLGQNEATLTCDARSNPEPTGYNWSTTMGPLPPFAVAQGAQLLIRPVDKPINTTLICNVTNALGARQAELTVQVKEGPPSEHSGISRNAIIFLVLGILVFLILLGIGIYFYWSKCSREVLWHCHLCPSSTEHASASANGHVSYSAVSRENSSSQDPQTEGTR [chain 2 G111W], for which the response is roughly 1700 MFI.

Variants of B1 are the subject of the next test. The test is described as above. This is another data set of the same source.
With chain 2 WPPPGTGDVVVQAPTQVPGFLGDSVTLPCYLQVPNMEVTHVSQLTWARHGESGSMAVFHQTQGPSYSESKRLEFVAARLGAELRNASLRMFGLRVEDEGNYTCLFVTFPQVSRSVDIWLRVLAKPQNTAEVQKVQLTGEPVPMARCVSTGGRPPAQITWHSDLGGMPNTSQVPGFLSGTVTVTSLWILVPSSQVDGKNVTCKVEHESFEKPQLLTVNLTVYYPPEVSISGYDNNWYLGQNEATLTCDARSNPEPTGYNWSTTMGPLPPFAVAQGAQLLIRPVDKPINTTLICNVTNALGARQAELTVQVKEGPPSEHSGISRNAIIFLVLGILVFLILLGIGIYFYWSKCSREVLWHCHLCPSSTEHASASANGHVSYSAVSRENSSSQDPQTEGTR [chain 2 G111V], the response is roughly 4900 MFI.
On the same count and under the same terms, then chain 2 WPPPGTGDVVVQAPTQVPGFLGDSVTLPCYLQVPNMEVTHVSQLTWARHGESGSMAVFHQTQGPSYSESKRLEFVAARLGAELRNASLRMFGLRVEDEGNYTCLFVTFPQGQRSVDIWLRVLAKPQNTAEVQKVQLTGEPVPMARCVSTGGRPPAQITWHSDLGGMPNTSQVPGFLSGTVTVTSLWILVPSSQVDGKNVTCKVEHESFEKPQLLTVNLTVYYPPEVSISGYDNNWYLGQNEATLTCDARSNPEPTGYNWSTTMGPLPPFAVAQGAQLLIRPVDKPINTTLICNVTNALGARQAELTVQVKEGPPSEHSGISRNAIIFLVLGILVFLILLGIGIYFYWSKCSREVLWHCHLCPSSTEHASASANGHVSYSAVSRENSSSQDPQTEGTR [chain 2 S112Q], with roughly 4400 MFI.

(Values after publication PMC7869511, “Computer-aided design of PVR mutants with enhanced binding affinity to TIGIT” (Cell Communication and Signaling : CCS, 2021).)
